This is an account of results in patent US20230151095A1 (published 2023).

B1: XENP40891 (LB_1002, mAb-scFv VHVL) (antibody)
chain 1: EVQLLESGGGLVQPGGSLRLSCAVSGFSLSSYGVIWVRQAPGKGLEYVSWVSSGGSTNYASSVKGRFTISRDTSKNTVYLQMNSLRAEDTAVYFCARGATNSGTDIWGPGTLVTVSSASTKGPSVFPLAPSSKSTSGGTAALGCLVKDYFPEPVTVSWNSGALTSGVHTFPAVLQSSGLYSLSSVVTVPSSSLGTQTYICNVNHKPSDTKVDKKVEPKSCDKTHTCPPCPAPELLGGPSVFLFPPKPKDTLMISRTPEVTCVVVDVSHEDPEVKFNWYVDGVEVHNAKTKPREEEYNSTYRVVSVLTVLHQDWLNGKEYKCKVSNKALPAPIEKTISKAKGQPREPQVYTLPPSREEMTKNQVSLTCDVSGFYPSDIAVEWESDGQPENNYKTTPPVLDSDGSFFLYSKLTVDKSRWEQGDVFSCSVMHEALHNHYTQKSLSLSPGK
chain 2: not shown
chain 3: DIVMTQSPSSLSASVGDRVTITCRASQSINSWLSWYQQKPGKPPKLLIYGASNLASGVPSRFKGSGSGTDFTLTISSLQPEDFATYYCQNNYGIIAAGATFGGGTKVEIKRTVAAPSVFIFPPSDEQLKSGTASVVCLLNNFYPREAKVQWKVDNALQSGNSQESVTEQDSKDSTYSLSSTLTLSKADYEKHKVYACEVTHQGLSSPVTKSFNRGEC
B2: XENP41335 (1D2B4, 1+1 VLVH) (antibody)
chain 1: EVQLLESGGGLVQPGGSLRLSCAVSGFSLSSYGVIWVRQAPGKGLEYVSWVSSGGSTNYASSVKGRFTISRDTSKNTVYLQMNSLRAEDTAVYFCARGATNSGTDIWGPGTLVTVSSASTKGPSVFPLAPSSKSTSGGTAALGCLVKDYFPEPVTVSWNSGALTSGVHTFPAVLQSSGLYSLSSVVTVPSSSLGTQTYICNVNHKPSDTKVDKKVEPKSCDKTHTCPPCPAPELLGGPSVFLFPPKPKDTLMISRTPEVTCVVVDVSHEDPEVKFNWYVDGVEVHNAKTKPREEEYNSTYRVVSVLTVLHQDWLNGKEYKCKVSNKALPAPIEKTISKAKGQPREPQVYTLPPSREEMTKNQVSLTCDVSGFYPSDIAVEWESDGQPENNYKTTPPVLDSDGSFFLYSKLTVDKSRWEQGDVFSCSVMHEALHNHYTQKSLSLSPGK
chain 2: not shown
chain 3: DIVMTQSPSSLSASVGDRVTITCRASQSINSWLSWYQQKPGKPPKLLIYGASNLASGVPSRFKGSGSGTDFTLTISSLQPEDFATYYCQNNYGIIAAGATFGGGTKVEIKRTVAAPSVFIFPPSDEQLKSGTASVVCLLNNFYPREAKVQWKVDNALQSGNSQESVTEQDSKDSTYSLSSTLTLSKADYEKHKVYACEVTHQGLSSPVTKSFNRGEC
B3: XENP40584 (LB_1001, 2+1 VHVL) (antibody)
chain 1: EVQLLESGGGLVQPGGSLRLSCAVSGFSLSSYGVIWVRQAPGKGLEYVSWVSSGGSTNYASSVKGRFTISRDTSKNTVYLQMNSLRAEDTAVYFCARGATNSGTDIWGPGTLVTVSSASTKGPSVFPLAPSSKSTSGGTAALGCLVKDYFPEPVTVSWNSGALTSGVHTFPAVLQSSGLYSLSSVVTVPSSSLGTQTYICNVNHKPSDTKVDKKVEPKSCDKTHTCPPCPAPELLGGPSVFLFPPKPKDTLMISRTPEVTCVVVDVSHEDPEVKFNWYVDGVEVHNAKTKPREEEYNSTYRVVSVLTVLHQDWLNGKEYKCKVSNKALPAPIEKTISKAKGQPREPQVYTLPPSREEMTKNQVSLTCDVSGFYPSDIAVEWESDGQPENNYKTTPPVLDSDGSFFLYSKLTVDKSRWEQGDVFSCSVMHEALHNHYTQKSLSLSPGK
chain 2: not shown
chain 3: DIVMTQSPSSLSASVGDRVTITCRASQSINSWLSWYQQKPGKPPKLLIYGASNLASGVPSRFKGSGSGTDFTLTISSLQPEDFATYYCQNNYGIIAAGATFGGGTKVEIKRTVAAPSVFIFPPSDEQLKSGTASVVCLLNNFYPREAKVQWKVDNALQSGNSQESVTEQDSKDSTYSLSSTLTLSKADYEKHKVYACEVTHQGLSSPVTKSFNRGEC
B4: XENP41342 (LB_1002, mAb-scFv VLVH) (antibody)
chain 1: EVQLLESGGGLVQPGGSLRLSCAVSGFSLSSYGVIWVRQAPGKGLEYVSWVSSGGSTNYASSVKGRFTISRDTSKNTVYLQMNSLRAEDTAVYFCARGATNSGTDIWGPGTLVTVSSASTKGPSVFPLAPSSKSTSGGTAALGCLVKDYFPEPVTVSWNSGALTSGVHTFPAVLQSSGLYSLSSVVTVPSSSLGTQTYICNVNHKPSDTKVDKKVEPKSCDKTHTCPPCPAPELLGGPSVFLFPPKPKDTLMISRTPEVTCVVVDVSHEDPEVKFNWYVDGVEVHNAKTKPREEEYNSTYRVVSVLTVLHQDWLNGKEYKCKVSNKALPAPIEKTISKAKGQPREPQVYTLPPSREEMTKNQVSLTCDVSGFYPSDIAVEWESDGQPENNYKTTPPVLDSDGSFFLYSKLTVDKSRWEQGDVFSCSVMHEALHNHYTQKSLSLSPGK
chain 2: not shown
chain 3: DIVMTQSPSSLSASVGDRVTITCRASQSINSWLSWYQQKPGKPPKLLIYGASNLASGVPSRFKGSGSGTDFTLTISSLQPEDFATYYCQNNYGIIAAGATFGGGTKVEIKRTVAAPSVFIFPPSDEQLKSGTASVVCLLNNFYPREAKVQWKVDNALQSGNSQESVTEQDSKDSTYSLSSTLTLSKADYEKHKVYACEVTHQGLSSPVTKSFNRGEC
B5: XENP41336 (1D7B4, 1+1 VLVH) (antibody)
chain 1: EVQLLESGGGLVQPGGSLRLSCAVSGFSLSSYGVIWVRQAPGKGLEYVSWVSSGGSTNYASSVKGRFTISRDTSKNTVYLQMNSLRAEDTAVYFCARGATNSGTDIWGPGTLVTVSSASTKGPSVFPLAPSSKSTSGGTAALGCLVKDYFPEPVTVSWNSGALTSGVHTFPAVLQSSGLYSLSSVVTVPSSSLGTQTYICNVNHKPSDTKVDKKVEPKSCDKTHTCPPCPAPELLGGPSVFLFPPKPKDTLMISRTPEVTCVVVDVSHEDPEVKFNWYVDGVEVHNAKTKPREEEYNSTYRVVSVLTVLHQDWLNGKEYKCKVSNKALPAPIEKTISKAKGQPREPQVYTLPPSREEMTKNQVSLTCDVSGFYPSDIAVEWESDGQPENNYKTTPPVLDSDGSFFLYSKLTVDKSRWEQGDVFSCSVMHEALHNHYTQKSLSLSPGK
chain 2: not shown
chain 3: DIVMTQSPSSLSASVGDRVTITCRASQSINSWLSWYQQKPGKPPKLLIYGASNLASGVPSRFKGSGSGTDFTLTISSLQPEDFATYYCQNNYGIIAAGATFGGGTKVEIKRTVAAPSVFIFPPSDEQLKSGTASVVCLLNNFYPREAKVQWKVDNALQSGNSQESVTEQDSKDSTYSLSSTLTLSKADYEKHKVYACEVTHQGLSSPVTKSFNRGEC
B6: XENP40558 (1D7B4, mAb-scFv VHVL) (antibody)
chain 1: EVQLLESGGGLVQPGGSLRLSCAVSGFSLSSYGVIWVRQAPGKGLEYVSWVSSGGSTNYASSVKGRFTISRDTSKNTVYLQMNSLRAEDTAVYFCARGATNSGTDIWGPGTLVTVSSASTKGPSVFPLAPSSKSTSGGTAALGCLVKDYFPEPVTVSWNSGALTSGVHTFPAVLQSSGLYSLSSVVTVPSSSLGTQTYICNVNHKPSDTKVDKKVEPKSCDKTHTCPPCPAPELLGGPSVFLFPPKPKDTLMISRTPEVTCVVVDVSHEDPEVKFNWYVDGVEVHNAKTKPREEEYNSTYRVVSVLTVLHQDWLNGKEYKCKVSNKALPAPIEKTISKAKGQPREPQVYTLPPSREEMTKNQVSLTCDVSGFYPSDIAVEWESDGQPENNYKTTPPVLDSDGSFFLYSKLTVDKSRWEQGDVFSCSVMHEALHNHYTQKSLSLSPGK
chain 2: not shown
chain 3: DIVMTQSPSSLSASVGDRVTITCRASQSINSWLSWYQQKPGKPPKLLIYGASNLASGVPSRFKGSGSGTDFTLTISSLQPEDFATYYCQNNYGIIAAGATFGGGTKVEIKRTVAAPSVFIFPPSDEQLKSGTASVVCLLNNFYPREAKVQWKVDNALQSGNSQESVTEQDSKDSTYSLSSTLTLSKADYEKHKVYACEVTHQGLSSPVTKSFNRGEC
B7: XENP41341 (LB_1001, mAb-scFv VLVH) (antibody)
chain 1: EVQLLESGGGLVQPGGSLRLSCAVSGFSLSSYGVIWVRQAPGKGLEYVSWVSSGGSTNYASSVKGRFTISRDTSKNTVYLQMNSLRAEDTAVYFCARGATNSGTDIWGPGTLVTVSSASTKGPSVFPLAPSSKSTSGGTAALGCLVKDYFPEPVTVSWNSGALTSGVHTFPAVLQSSGLYSLSSVVTVPSSSLGTQTYICNVNHKPSDTKVDKKVEPKSCDKTHTCPPCPAPELLGGPSVFLFPPKPKDTLMISRTPEVTCVVVDVSHEDPEVKFNWYVDGVEVHNAKTKPREEEYNSTYRVVSVLTVLHQDWLNGKEYKCKVSNKALPAPIEKTISKAKGQPREPQVYTLPPSREEMTKNQVSLTCDVSGFYPSDIAVEWESDGQPENNYKTTPPVLDSDGSFFLYSKLTVDKSRWEQGDVFSCSVMHEALHNHYTQKSLSLSPGK
chain 2: not shown
chain 3: DIVMTQSPSSLSASVGDRVTITCRASQSINSWLSWYQQKPGKPPKLLIYGASNLASGVPSRFKGSGSGTDFTLTISSLQPEDFATYYCQNNYGIIAAGATFGGGTKVEIKRTVAAPSVFIFPPSDEQLKSGTASVVCLLNNFYPREAKVQWKVDNALQSGNSQESVTEQDSKDSTYSLSSTLTLSKADYEKHKVYACEVTHQGLSSPVTKSFNRGEC
B8: XENP40590 (1D7B4, 2+1 VHVL) (antibody)
chain 1: EVQLLESGGGLVQPGGSLRLSCAVSGFSLSSYGVIWVRQAPGKGLEYVSWVSSGGSTNYASSVKGRFTISRDTSKNTVYLQMNSLRAEDTAVYFCARGATNSGTDIWGPGTLVTVSSASTKGPSVFPLAPSSKSTSGGTAALGCLVKDYFPEPVTVSWNSGALTSGVHTFPAVLQSSGLYSLSSVVTVPSSSLGTQTYICNVNHKPSDTKVDKKVEPKSCDKTHTCPPCPAPELLGGPSVFLFPPKPKDTLMISRTPEVTCVVVDVSHEDPEVKFNWYVDGVEVHNAKTKPREEEYNSTYRVVSVLTVLHQDWLNGKEYKCKVSNKALPAPIEKTISKAKGQPREPQVYTLPPSREEMTKNQVSLTCDVSGFYPSDIAVEWESDGQPENNYKTTPPVLDSDGSFFLYSKLTVDKSRWEQGDVFSCSVMHEALHNHYTQKSLSLSPGK
chain 2: not shown
chain 3: DIVMTQSPSSLSASVGDRVTITCRASQSINSWLSWYQQKPGKPPKLLIYGASNLASGVPSRFKGSGSGTDFTLTISSLQPEDFATYYCQNNYGIIAAGATFGGGTKVEIKRTVAAPSVFIFPPSDEQLKSGTASVVCLLNNFYPREAKVQWKVDNALQSGNSQESVTEQDSKDSTYSLSSTLTLSKADYEKHKVYACEVTHQGLSSPVTKSFNRGEC

For the experiment, the target named is T1, XENP23311 (His-tagged NKG2D-Fc) (human, UniProt P26718 78-216).
T1 chain: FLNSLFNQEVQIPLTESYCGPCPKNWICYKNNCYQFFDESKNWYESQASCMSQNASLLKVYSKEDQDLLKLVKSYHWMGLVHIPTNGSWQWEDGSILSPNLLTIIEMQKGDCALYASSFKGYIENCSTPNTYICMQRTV
Kind of experiment: Octet. On the technique in general: In BLI a coated tip is dipped into the sample, and binding shifts an interference pattern.
As for B1, binding was characterised by a dissociation constant (Kd) of 327 nM.
B2: the affinity, expressed as Kd, was 41.7 nM.
In the case of B3 it was 122 nM.
As for B4, the figure is 680 nM; as for B5, 13.9 nM; as for B6, 28.8 nM.
As for B7, binding was put at a Kd of 359 nM. This Kd is about 12-fold higher than that of the molecule before.
In the case of B8 it was 21.9 nM.
